Patent publication US10654917B2, “Antibody molecules and peptide delivery systems for use in alzheimer's disease and related disorders” (TECHNOPHAGE, INVESTIGAÇĀO E DESENVOLVIMENTO EM …, priority 2015, dated 2020)
Read-outs that look alike come from different tables or passages of the source.

Tests used:
[1] = Biodistribution of technetium-labelled peptides; type: in vivo, CD1 mice
Procedure: To evaluate the capacity to cross the BBB in vivo, the selected peptides, pepH1 and pepH3, were analyzed for biodistribution in CD1 mice. The peptides were labelled with technetium at a final concentration of 8.5×10^−5 M and diluted in PBS. CD1 mice were injected (iv injection, tail vein). The mice were sacrificed by cervical dislocation after 5 and 60 minutes of incubation. The tissues of interest were dissected and washed to remove excess blood, weighed, and measured for radioactivity. Technetium radioactivity of the different peptides was measured for different organs.
Initial results are presented in Table 11, where “% I.A. refers to the “% injected activity”, that is, the amount of radioactivity measured in a given organ compared to the total originally injected.
The biodistribution studies were repeated, using higher doses of each peptide, specifically, a one hundred fold increase, as well as using PepH2 as a negative control, and allowing incubation for 2 minutes and 60 minutes. Tissue biodistribution profile in percentage of injected radiopeptide activity per gram of tissue/organ was measured and results are presented in Table 12.

[2] = Partition coefficient (log Po/w) of radiopeptides; type: physicochemical
Description: (§1) Table 7 lists each peptide's name, isoelectric point (PI), charge (number of positive residues), calculated mass (in Da), and ion found; as well as the name, calculated mass, and found ion for the corresponding conjugate; and also retention times in HPLC and the partition coefficient (log Po/w). These values allowed the determination of the hydrophilic nature of peptides, where pepH1 and pepH4 were identified as the most hydrophilic peptides.

[3] = Stability in blood and urine after injection, HPLC; type: in vivo, mice; details: 5 and 60 minutes following injection
Procedure: Finally, stability of the peptides was determined. Urine and blood were taken from the animals after death, filtered, and analyzed by RT-HPLC. HPLC analysis was conducted to assess the stability of pepH1 and pepH3 peptides in blood and urine, 5 and 60 minutes post-administration, compared to the respective original preparations.
FIGS. 28A-28D show the profile of pepH1 and pepH3 each in its original preparation, prior to injection into the animals, and then after 5 and 60 minutes following injection in the blood and urine.

[4] = system: bEnd3 cells; assay: Uptake test: cellular interaction (acid wash) and internalization (lysate); type: cell-based
Procedure: In addition to testing models of BBB, an uptake test was performed to determine the internalizing ability of the candidate peptides. BEnd3 cells were cultured in 24 well plates. At each time point, the medium containing the peptide, which had not interacted with the cells, was collected. In the next step, the cells were washed with an acidic buffer that releases peptides more strongly bound to the cell membrane (sample acid wash). Finally, the cells were lysed to release internalized peptides and to quantify the activity inside the cells. Results are showing in FIGS. 23A-23E.
FIGS. 23A-23E show percent activity of the radioisotope technetium-labelled peptides in the media, wash buffer (acid wash) and lysate, after 15 minutes, 5 hours, and 24 hours of incubation with bEnd3 cells; and values were obtained from two independent assays. […] PepM′, as well as showing high transmigration (about 50%), also appeared to become internalized and accumulated within the cells (about 13% of radioactivity in the lysate).
(§2) Table 9 summarizes results regarding uptake (internalization) and cellular interaction, as well as transmigration across an in vitro model for BBB, for peptides labelled with technetium and gallium, after 15 minutes, 5 hours, and 24-hours of incubation, based on percent recovery of radiopeptide. The Table lists the peptides, providing each peptide's name, % BBB transmigration, % cellular interaction, and % internalized, each after […], 5 hours, and 24 hours of incubation.

[5] = system: in vitro model of the BBB (bEnd3 cells); assay: Transmigration of radiolabelled peptides across in vitro BBB model; type: in vitro ADME
Procedure: Using the same in vitro model of the BBB described above, peptides labelled with technetium and gallium were tested for the ability to cross endothelial barrier. For each peptide, bEnd3 cells cultured on “tissue culture inserts” were incubated with 5 ρCimL^−1-labelled peptide for different incubation times: 15 min, 5 h and 24 h. As a control, the model without cells was used (Control no cells) or (Filters) and compared to models with cells (BBB) or (Cells).
FIGS. 21A-21F show the percent activity of the radioisotope technetium-labelled peptides at the apex and base after 5 hours of incubation with the in vitro model described above, using the BBB-model or no cells (as a control); and values were obtained from two independent assays. […] Moreover, the results indicated promising candidates. Specifically, for each of pepH1 and pepH3, there was an overpass of 50% in the control, compared with only 20% in the presence of a cell barrier. The translocation of pepH2 was not observed in either the control nor in the BBB model.
Results for the incubations of 15 minutes, 5 hours, and 24 hours are shown together in FIGS. 22A-22F. That is, FIGS. 22A-22F show the percent activity of the radioisotope technetium-labelled peptides at the apex and base after 15 minutes, 5 hours, and 24 hours of incubation with the in vitro model described above, using the BBB-model or no cells (as a control); and values were obtained from two independent assays. Differences again were observed, confirming the integrity of the barrier, as well as identifying peptides that crossed the barrier. […] PepR′ thus was excluded from further tests.
as §2

[6] = Features of peptides: isoelectric point, charge; type: physicochemical; details: original peptide
Description: as §1

`CSCC[C@H](NC(=O)[C@H](Cc1ccccc1)NC(=O)[C@H](CC(C)C)NC(=O)[C@H](CCCCN)NC(=O)CCCN(CCN)CCn1nc(C)c(CC(=O)O)c1C)C(=O)N[C@@H](C)C(=O)N[C@@H](CC(C)C)C(=O)N[C@H](C(=O)N[C@@H](C)C(=O)N[C@@H](Cc1ccccc1)C(=O)N[C@@H](CC(C)C)C(=O)N[C@@H](CCCNC(=N)N)C(=O)N[C@@H](Cc1ccccc1)C(=O)N[C@@H](CC(C)C)C(=O)N[C@H](C(=O)O)[C@@H](C)O)C(C)C` [^99mTc(CO)3-Pz^1-pepH2, metal not drawn] gave a tissue uptake at 2 min ([1]; CD1, blood, iv, 80 ug/mouse, total radioactivity, 80 μg/mouse, read-out: injected activity in Blood) of 8.9 ± 0.6 %ID/g, a tissue uptake at 1 h ([1]; CD1, blood, iv, 80 ug/mouse, total radioactivity, 80 μg/mouse, 1 hour, read-out: injected activity in Blood) of 3.8 ± 0.2 %ID/g and a tissue uptake at 2 min ([1]; CD1, bone, iv, 80 ug/mouse, total radioactivity, 80 μg/mouse, read-out: injected activity in Bone) of 1.6 ± 0.1 %ID/g. The tissue uptake at 1 h ([1]; CD1, bone, iv, 80 ug/mouse, total radioactivity, 80 μg/mouse, 1 hour, read-out: injected activity in Bone) was 1.4 ± 0.1 %ID/g, the tissue uptake at 2 min ([1]; CD1, brain, iv, 80 ug/mouse, total radioactivity, 80 μg/mouse, read-out: injected activity in Brain) was 0.37 ± 0.04 %ID/g and the tissue uptake at 1 h ([1]; CD1, brain, iv, 80 ug/mouse, total radioactivity, 80 μg/mouse, 1 hour, read-out: injected activity in Brain) was 0.2 ± 0.1 %ID/g. The tissue uptake at 2 min ([1]; CD1, heart, iv, 80 ug/mouse, total radioactivity, 80 μg/mouse, read-out: injected activity in Heart) was 3.45 ± 0.02 %ID/g, the tissue uptake at 1 h ([1]; CD1, heart, iv, 80 ug/mouse, total radioactivity, 80 μg/mouse, 1 hour, read-out: injected activity in Heart) was 1.2 ± 0.2 %ID/g and the dose excreted at 1 h ([1]; CD1, in vivo, iv, 80 ug/mouse, total radioactivity, 80 μg/mouse, 1 hour, read-out: Excretion) was 12.7 ± 4.2%. The tissue uptake at 2 min ([1]; CD1, intestine, iv, 80 ug/mouse, total radioactivity, 80 μg/mouse, read-out: injected activity in Intestine) was 0.5 ± 0.1 %ID/g, the tissue uptake at 1 h ([1]; CD1, intestine, iv, 80 ug/mouse, total radioactivity, 80 μg/mouse, 1 hour, read-out: injected activity in Intestine) was 1.64 ± 0.07 %ID/g and the tissue uptake at 2 min ([1]; CD1, kidney, iv, 80 ug/mouse, total radioactivity, 80 μg/mouse, read-out: injected activity in Kidney) was 5 ± 1.5 %ID/g. The tissue uptake at 1 h ([1]; CD1, kidney, iv, 80 ug/mouse, total radioactivity, 80 μg/mouse, 1 hour, read-out: injected activity in Kidney) was 3.3 ± 0.8 %ID/g, the tissue uptake at 2 min ([1]; CD1, liver, iv, 80 ug/mouse, total radioactivity, 80 μg/mouse, read-out: injected activity in Liver) was 16.7 ± 1.1 %ID/g and the tissue uptake at 1 h ([1]; CD1, liver, iv, 80 ug/mouse, total radioactivity, 80 μg/mouse, 1 hour, read-out: injected activity in Liver) was 21.7 ± 0.9 %ID/g. It also gave a tissue uptake at 2 min ([1]; CD1, lung, iv, 80 ug/mouse, total radioactivity, 80 μg/mouse, read-out: injected activity in Lung) of 126 ± 20 %ID/g, a tissue uptake at 1 h ([1]; CD1, lung, iv, 80 ug/mouse, total radioactivity, 80 μg/mouse, 1 hour, read-out: injected activity in Lung) of 51.4 ± 4.4 %ID/g and a tissue uptake at 2 min ([1]; CD1, muscle, iv, 80 ug/mouse, total radioactivity, 80 μg/mouse, read-out: injected activity in Muscle) of 0.61 ± 0.09 %ID/g. The tissue uptake at 1 h ([1]; CD1, muscle, iv, 80 ug/mouse, total radioactivity, 80 μg/mouse, 1 hour, read-out: injected activity in Muscle) was 0.43 ± 0.03 %ID/g, the tissue uptake at 2 min ([1]; CD1, spleen, iv, 80 ug/mouse, total radioactivity, 80 μg/mouse, read-out: injected activity in Spleen) was 13.6 ± 0.3 %ID/g and the tissue uptake at 1 h ([1]; CD1, spleen, iv, 80 ug/mouse, total radioactivity, 80 μg/mouse, 1 hour, read-out: injected activity in Spleen) was 10.6 ± 0.4 %ID/g. For the same compound, the tissue uptake at 2 min ([1]; CD1, stomach, iv, 80 ug/mouse, total radioactivity, 80 μg/mouse, read-out: injected activity in Stomach) was 2 ± 0.6 %ID/g, the tissue uptake at 1 h ([1]; CD1, stomach, iv, 80 ug/mouse, total radioactivity, 80 μg/mouse, 1 hour, read-out: injected activity in Stomach) was 9.4 ± 0.2 %ID/g and the “log Po/w of radiopeptides” value [2] was 0.65 ± 0.13.
In the case of “VQQLTKRFSL (Dengue virus 2; /note=“#PepH1”)”, the “stability in blood and urine” value [3] is reported as “stable in the blood and urine”, the excreted ([1]; 140 μg (pepH1, pepH3) or 80 μg (pepH2), after 60 min) is reported as 32.7% and the brain uptake ([1]; after 2 min) is reported as “rapid brain uptake”. For the same compound, the brain washout ([1]; mouse, in vivo) was “rapid brain washout”, the “where the radiopeptide is found in the uptake test (media, acid wash, lysate)” value ([4]; 99mTc) was “mainly remained in the incubation medium” and the Cellular interaction ([4]; 99mTc, 0.25 hours) was 0.63 ± 0.1%. It also gave an Internalization ([4]; 99mTc, 0.25 hours) of 0.16 ± 0.0%, a Cellular interaction ([4]; 99mTc, 5 hours) of 0.30 ± 0.0% and an Internalization ([4]; 99mTc, 5 hours) of 0.10 ± 0.0%. The Cellular interaction ([4]; 99mTc, 24 hours) was 0.38 ± 0.1%, the Internalization ([4]; 99mTc, 24 hours) was 0.12 ± 0.0% and the Cellular interaction ([4]; GaCl3, 0.25 hours) was 0.25 ± 0.0%. The Internalization ([4]; GaCl3, 0.25 hours) was 0.00 ± 0.0%, the Cellular interaction ([4]; GaCl3, 5 hours) was 0.80 ± 0.3% and the Internalization ([4]; GaCl3, 5 hours) was 0.10 ± 0.0%. For the same compound, the Cellular interaction ([4]; GaCl3, 24 hours) was 0.62 ± 0.0%, the Internalization ([4]; GaCl3, 24 hours) was 0.16 ± 0.0% and the BBB transmigration ([5]; 99mTc, 0.25 hours) was 3.75 ± 0.5%. For the same compound, the “overpass in the control (no cells)” value ([5]; 99mTc, 5 h, no cells) was 50%, the BBB transmigration ([5]; 99mTc, 5 hours) was 24.3 ± 0.4% and the BBB transmigration ([5]; 99mTc, 5 hours, listed as pepH1) was 20%. For the same compound, the BBB transmigration ([5]; 99mTc, 24 hours) was 73.83 ± 9.4%, the BBB transmigration ([5]; 99mTc, 24 hours, listed as pepH1) was “about 70%” and the “BBB transmigration / translocation (summary of Table 9)” value ([5]; 24 h, both types of markings) was “about 70%”. The BBB transmigration ([5]; GaCl3, 0.25 hours) was 1.13 ± 0.2%, the BBB transmigration ([5]; GaCl3, 5 hours) was 21.56 ± 0.4% and the BBB transmigration ([5]; GaCl3, 24 hours) was 71.47 ± 3.7%. The “Charge (number of positive residues)” value [6] was 2 and the “PI (isoelectric point)” value [6] was 11.
